The values below come from patent US20220288229A1 (priority 2012, published 2022).

The data set can be described thus: Tolerability observations after IV dosing in the rat PK study. Format: in vivo. The conditions noted are these: rats, 1 mg/kg dose, three rats. How it is done:
For PK studies, a 0.1 mg/mL solution was dosed at 10 mL/kg such that a 1 mg/kg IV bolus dose was introduced by tail vein injection into rats Following compound administration, blood was collected at 0.083 h, 0.25 h, 0.5 h, 1 h, 2 h, 4 h, 8 h, and 24 h post dose into lithium heparin coated vacuum tubes. Tubes were inverted for 5 minutes and then placed on wet ice until centrifuged for 5 minutes at 4° C. at 6000 rpm. Plasma was harvested, frozen at −80° C. and shipped to for bioanalysis on dry ice.

As for `CCCCN(CCSSC[C@@H]1NC(=O)[C@@H](Cc2ccccc2)NC(=O)[C@H](CC(=O)O)NC(=O)CNC(=O)[C@H](CCCNC(=N)N)NC1=O)C(=O)O[C@@H](C(=O)OC1C[C@@]2(O)[C@@H](OC(=O)c3ccccc3)[C@@H]3[C@]4(OC(C)=O)CO[C@@H]4C[C@H](OC)[C@@]3(C)C(=O)[C@H](OC)C(=C1C)C2(C)C)[C@@H](NC(=O)OC(C)(C)C)c1ccccc1` (some centres unmarked) [BT-568], the “Clinical signs of toxicity post dose” value is “lethargy and labored breathing were observed immediately post dose in all three rats”; the Mortality result is “one of the three animals died”.
